Experimental data taken from patent US12269859B2, “Synthetic immune receptors and methods of use thereof” (Angeles Therapeutics, Inc., priority 2016, dated 2025).

Test system: target antigen-expressing cell line
Assay: Jurkat NFAT-GFP assay, coculture with target cell lines expressing the respective target antigen (summary Table 10A)
Format: cell-based, human
Design: key: The signs +/−, +, 2+ etc. after the name of the cell lines indicate the relative degree of positivity on the Jurkat-NFAT-GFP assay as measured by the % GFP positive cells; +: relative degree of positivity on the Jurkat-NFAT-GFP assay as measured by the % GFP positive cells; 2+: relative degree of positivity on the Jurkat-NFAT-GFP assay as measured by the % GFP positive cells
Conditions: relative % GFP positive cells; for NFAT-GFP ASSAY Positive Cell lines: RAJI: SIR-expressing Jurkat-NFAT-GFP cells cocultured with RAJI; for NFAT-GFP ASSAY Positive Cell lines: NALM6: SIR-expressing Jurkat-NFAT-GFP cells cocultured with NALM6
In short: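 Coculture of SIR-bearing Jurkat NFAT-GFP reporters with target cells, ~1:2 E:T, ~4–18 h. FACS quantified % GFP+ cells, ranked semi-quantitatively against parental Jurkat-NFAT-GFP.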

Molecule | NFAT-GFP ASSAY Positive Cell lines: RAJI | NFAT-GFP ASSAY Positive Cell lines: HEL (SIR-expressing Jurkat-NFAT-GFP cells cocultured with HEL) | NFAT-GFP ASSAY Positive Cell lines: NALM6
040716-F05 (protein, Synthetic polynucleotide encoding a SIR) MALPVTALLLPLALLLHAARPDEIVLTQSPATLSLSPGERATLSCSASSSVSYMHWYQQKPGQAPRLLIYDTSKLASGIPARFSGSGSGTDFTLTISSLEPEDVAVYYCFQGSVYPFTFGQGTKLEIKRGGGGSGGGGSGGGGSQVQLQESGPGLVKPSQTLSLTCTVSGGSISTSGMGVGWIRQHPGKGLEWIGHIWWDDDKRYNPALKSRVTISVDTSKNQFSLKLSSVTAADTAVYYCARMELWSYYFDYWGQGTLVTVSSLEGKPIPNPLLGLDSTGSGEDLKNVFPPEVAVFEPSKAEIAHTQKATLVCLATGFYPDHVELSWWVNGKEVHSGVCTDPQPLKEQPALNDSRYCLSSRLRVSATFWQNPRNHFRCQVQFYGLSENDEWTQDRAKPVTQIVSAEAWGRADCGITSASYHQGVLSATILYEILLGKATLYAVLVSALVLMAMVKRKDSRGRAKRSGSGATNFSLLKQAGDVEENPGPTSTMALPVTALLLPLALLLHAARPDIQMTQSPSSLSASLGERVSLTCRATQELSGYLSWLQQKPDGTIKRLIYAASTLDSGVPKRFSGNRSGSDYSLTISSLESEDFADYYCLQYAIYPYTFGGGTKLEIKGGGGSGGGGSGGGGSEVQLQQSGPELVKPGASVKMSCKASGYTFTSYFIHWVKQKPGQGLEWIGFINPYNDGSKYNEKFKGKATLTSDKSSSTAYMELSSLTSEDSAVYYCTRDDGYYGYAMDYWGQGTSVTVSSTREQKLISEEDGSGIQNPDPAVYQLRDSKSSDKSVCLFTDFDSQTNVSQSKDSDVYITDKCVLDMRSMDFKSNSAVAWSNKSDFACANAFNNSIIPEDTFFPSSDVPCDVKLVEKSFETDTNLNFQNLSVIGFRILLLKVAGFNLLMTLRLWSSRAKRSGSGVKQTLNFDLLKLAGDVESNPGPSRGHMTEYKPTVRLATRDDVPRAVRTLAAAFADYPATRHTVDPDRHIERVTELQELFLTRVGLDIGKVWVADDGAAVAVWTTPESVEAGAVFAEIGPRMAELSGSRLAAQQQMEGLLAPHRPKEPAWFLATVGVSPDHQGKGLGSAVVLPGVEAAERAGVPAFLETSAPRNLPFYERLGFTVTADVEVPEGPRTWCMTRKPGA | RAJI (+/−) |  | 
040716-G02 (protein, Synthetic polynucleotide encoding a SIR) MALPVTALLLPLALLLHAARPDEIVLTQSPATLSLSPGERATLSCSASSSVSYMHWYQQKPGQAPRLLIYDTSKLASGIPARFSGSGSGTDFTLTISSLEPEDVAVYYCFQGSVYPFTFGQGTKLEIKRGGGGSGGGGSGGGGSQVQLQESGPGLVKPSQTLSLTCTVSGGSISTSGMGVGWIRQHPGKGLEWIGHIWWDDDKRYNPALKSRVTISVDTSKNQFSLKLSSVTAADTAVYYCARMELWSYYFDYWGQGTLVTVSSLEGKPIPNPLLGLDSTGSGEDLKNVFPPEVAVFEPSKAEIAHTQKATLVCLATGFYPDHVELSWWVNGKEVHSGVCTDPQPLKEQPALNDSRYCLSSRLRVSATFWQNPRNHFRCQVQFYGLSENDEWTQDRAKPVTQIVSAEAWGRADCGITSASYHQGVLSATILYEILLGKATLYAVLVSALVLMAMVKRKDSRGRAKRSGSGATNFSLLKQAGDVEENPGPTSTMALPVTALLLPLALLLHAARPDTIVLTQSPASLAVSLGQRATISCRASESVDSYGNSFMHWYQQKPGQPPKLLIYLASNLESGVPARFSGSGSRTDFTLTIDPVEADDAATYYCQQNNYDPWTFGGGTKLEIKGGGGSGGGGSGGGGSEVQLQQSGPELVKPGASVKMSCKASGYTFTSYVMHWVKQKPGQGLEWIGYINPYNDGTKYNEKFKGKATLTSDTSSSTAYMELNSLTSEDSAVYFCARPIYFDNDYFDYWGQGTTLKVSSTREQKLISEEDGSGIQNPDPAVYQLRDSKSSDKSVCLFTDFDSQTNVSQSKDSDVYITDKCVLDMRSMDFKSNSAVAWSNKSDFACANAFNNSIIPEDTFFPSSDVPCDVKLVEKSFETDTNLNFQNLSVIGFRILLLKVAGFNLLMTLRLWSSRAKRSGSGVKQTLNFDLLKLAGDVESNPGPSRGHMTEYKPTVRLATRDDVPRAVRTLAAAFADYPATRHTVDPDRHIERVTELQELFLTRVGLDIGKVWVADDGAAVAVWTTPESVEAGAVFAEIGPRMAELSGSRLAAQQQMEGLLAPHRPKEPAWFLATVGVSPDHQGKGLGSAVVLPGVEAAERAGVPAFLETSAPRNLPFYERLGFTVTADVEVPEGPRTWCMTRKPGA | RAJI (+/−) |  | 
063016-E01 (protein, Synthetic Immune Receptor (SIR)) MALPVTALLLPLALLLHAARPDEIVLTQSPATLSLSPGERATLSCSASSSVSYMHWYQQKPGQAPRLLIYDTSKLASGIPARFSGSGSGTDFTLTISSLEPEDVAVYYCFQGSVYPFTFGQGTKLEIKRGGGGSGGGGSGGGGSQVQLQESGPGLVKPSQTLSLTCTVSGGSISTSGMGVGWIRQHPGKGLEWIGHIWWDDDKRYNPALKSRVTISVDTSKNQFSLKLSSVTAADTAVYYCARMELWSYYFDYWGQGTLVTVSSLEGKPIPNPLLGLDSTGSGEDLKNVFPPEVAVFEPSEAEISHTQKATLVCLATGFYPDHVELSWWVNGKEVHSGVCTDPQPLKEQPALNDSRYCLSSRLRVSATFWQNPRNHFRCQVQFYGLSENDEWTQDRAKPVTQIVSAEAWGRADCGFTSESYQQGVLSATILYEILLGKATLYAVLVSALVLMAMVKRKDSRGRAKRSGSGATNFSLLKQAGDVEENPGPTSATMALPVTALLLPLALLLHAARPDVQLQESGPGLVKPSQSLSLTCTVTGYSITSDYTWNWIRQFPGNKLEWMGYITYSGSTSYNPSLKSRNSITRDTSKNQFFLQLNSVTTEDTATYYCARLGRRYTMDYWGQGTSVTVSSGGGGSGGGGSGGGGSDIQMTQSSSSFSVSLGDRVTITCMASEDIYIRLAWYQQKPGNAPRLLISAATSLETGVPSRFSGSGSGKDYTLSITSLQTEDVGTYYCQQYWSSPWTFGGGTKLEINTREQKLISEEDGSGIQNPDPAVYQLRDSKSSDKSVCLFTDFDSQTNVSQSKDSDVYITDKCVLDMRSMDFKSNSAVAWSNKSDFACANAFNNSIIPEDTFFPSPESSCDVKLVEKSFETDTNLNFQNLSVIGFRILLLKVAGFNLLMTLRLWSSRAKRSGSGVKQTLNFDLLKLAGDVESNPGPSRGHMTEYKPTVRLATRDDVPRAVRTLAAAFADYPATRHTVDPDRHIERVTELQELFLTRVGLDIGKVWVADDGAAVAVWTTPESVEAGAVFAEIGPRMAELSGSRLAAQQQMEGLLAPHRPKEPAWFLATVGVSPDHQGKGLGSAVVLPGVEAAERAGVPAFLETSAPRNLPFYERLGFTVTADVEVPEGPRTWCMTRKPGA | 2+ | +/− | 
030217-K05 (protein) MALPVTALLLPLALLLHAARPDEIVLTQSPATLSLSPGERATLSCSASSSVSYMHWYQQKPGQAPRLLIYDTSKLASGIPARFSGSGSGTDFTLTISSLEPEDVAVYYCFQGSVYPFTFGQGTKLEIKRGGGGSGGGGSGGGGSQVQLQESGPGLVKPSQTLSLTCTVSGGSISTSGMGVGWIRQHPGKGLEWIGHIWWDDDKRYNPALKSRVTISVDTSKNQFSLKLSSVTAADTAVYYCARMELWSYYFDYWGQGTLVTVSSLEGKPIPNPLLGLDSTGSGEDLKNVFPPEVAVFEPSKAEIAHTQKATLVCLATGFYPDHVELSWWVNGKEVHSGVCTDPQPLKEQPALNDSRYCLSSRLRVSATFWQNPRNHFRCQVQFYGLSENDEWTQDRAKPVTQIVSAEAWGRADCGITSASYHQGVLSATILYEILLGKATLYAVLVSALVLMAMVKRKDSRGRAKRSGSGATNFSLLKQAGDVEENPGPTSMALPVTALLLPLALLLHAARPDIVMTQSHKFMSTSVGDRVSVTCKASQNVGNNVAWYQQKPGQSPKVLIYSASYRYSGVPDRFTGSGSGTDFTLTISNVQSEDLAEYFCQQYNTYPFTFGSGTKLEIKGGGGSGGGGSGGGGSEVQLEESGGGLVQPGGSMKLSCVASGFTFSNYWMNWVRQSPEKGLEWVAEIRFKSHNYATHFAESVKGRFTISRDDSKSSVYLQMNNLRAEDTGIYYCTRRIGNSDYDWWYFDVWGAGTSVTVSSASTREQKLISEEDGSGIQNPDPAVYQLRDSKSSDKSVCLFTDFDSQTNVSQSKDSDVYITDKCVLDMRSMDFKSNSAVAWSNKSDFACANAFNNSIIPEDTFFPSSDVPCDVKLVEKSFETDTNLNFQNLSVIGFRILLLKVAGFNLLMTLRLWSSRAKRSGSGVKQTLNFDLLKLAGDVESNPGPSRGHMTEYKPTVRLATRDDVPRAVRTLAAAFADYPATRHTVDPDRHIERVTELQELFLTRVGLDIGKVWVADDGAAVAVWTTPESVEAGAVFAEIGPRMAELSGSRLAAQQQMEGLLAPHRPKEPAWFLATVGVSPDHQGKGLGSAVVLPGVEAAERAGVPAFLETSAPRNLPFYERLGFTVTADVEVPEGPRTWCMTRKPGA |  |  | (+)
030217-J05 (protein) MALPVTALLLPLALLLHAARPDEIVLTQSPATLSLSPGERATLSCSASSSVSYMHWYQQKPGQAPRLLIYDTSKLASGIPARFSGSGSGTDFTLTISSLEPEDVAVYYCFQGSVYPFTFGQGTKLEIKRGGGGSGGGGSGGGGSQVQLQESGPGLVKPSQTLSLTCTVSGGSISTSGMGVGWIRQHPGKGLEWIGHIWWDDDKRYNPALKSRVTISVDTSKNQFSLKLSSVTAADTAVYYCARMELWSYYFDYWGQGTLVTVSSLEGKPIPNPLLGLDSTGSGEDLKNVFPPEVAVFEPSKAEIAHTQKATLVCLATGFYPDHVELSWWVNGKEVHSGVCTDPQPLKEQPALNDSRYCLSSRLRVSATFWQNPRNHFRCQVQFYGLSENDEWTQDRAKPVTQIVSAEAWGRADCGITSASYHQGVLSATILYEILLGKATLYAVLVSALVLMAMVKRKDSRGRAKRSGSGATNFSLLKQAGDVEENPGPTSMALPVTALLLPLALLLHAARPDIQMTQSPASLSASVGETVTIICRASVNIYSYLAWYQQKQGKSPQLLVYNAKILAEGVPSRFSGSGSGTQFSLKINSLQPEDFGSYYCQHHYGTFTFGSGTKLEIKRGGGGSGGGGSGGGGSQVQLKESGPGLVAPSQSLSITCTISGFSLTSYGVHWVRQPPGKGLEWLVVIWSDGSTTYNSALKSRLSISKDNSKSQVFLKMNSLQTDDTAIYYCASHYGSTLAFASWGHGTLVTVSAATREQKLISEEDGSGIQNPDPAVYQLRDSKSSDKSVCLFTDFDSQTNVSQSKDSDVYITDKCVLDMRSMDFKSNSAVAWSNKSDFACANAFNNSIIPEDTFFPSSDVPCDVKLVEKSFETDTNLNFQNLSVIGFRILLLKVAGFNLLMTLRLWSSRAKRSGSGVKQTLNFDLLKLAGDVESNPGPSRGHMTEYKPTVRLATRDDVPRAVRTLAAAFADYPATRHTVDPDRHIERVTELQELFLTRVGLDIGKVWVADDGAAVAVWTTPESVEAGAVFAEIGPRMAELSGSRLAAQQQMEGLLAPHRPKEPAWFLATVGVSPDHQGKGLGSAVVLPGVEAAERAGVPAFLETSAPRNLPFYERLGFTVTADVEVPEGPRTWCMTRKPGA | RAJI (2+), NALM6 |  | (+/−)
